In patent publication US20220249640A1 (Dana-Farber, published 2022):

Key:
human PD-1 on cells = human PD-1 on cells (human, UniProt Q15116 25-288); test: cell-based or functional assay
[1] = target: T1, PD-1 (soluble, biotinylated, on sensors or coated on plates) (human, UniProt Q15116 25-167, limits assumed, biotinylated (avi tag, Avidity's biotinylation kit) in the Octet assays); test: method not stated at the list; Octet curves of the mutants in FIG. 23
T1 construct: also called biotinylated PD-1; soluble PD1
T1 sequence (Q15116 25-167 limits assumed): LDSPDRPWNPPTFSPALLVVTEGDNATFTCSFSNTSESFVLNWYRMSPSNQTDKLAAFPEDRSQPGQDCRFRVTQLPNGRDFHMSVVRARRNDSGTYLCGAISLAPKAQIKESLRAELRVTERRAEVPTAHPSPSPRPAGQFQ

[2] = target: T1, PD-1 (soluble, biotinylated, on sensors …); test: Octet (BLI)
[3] = target: T2, mouse PD-1 on transiently transfected Expi293 cells (mouse, UniProt Q02242 25-288); test: flow cytometry on transiently transfected Expi293 cells, anti human Fc-APC
T2 construct: whole, on cells; also called mPD-1
T2 sequence (looked up): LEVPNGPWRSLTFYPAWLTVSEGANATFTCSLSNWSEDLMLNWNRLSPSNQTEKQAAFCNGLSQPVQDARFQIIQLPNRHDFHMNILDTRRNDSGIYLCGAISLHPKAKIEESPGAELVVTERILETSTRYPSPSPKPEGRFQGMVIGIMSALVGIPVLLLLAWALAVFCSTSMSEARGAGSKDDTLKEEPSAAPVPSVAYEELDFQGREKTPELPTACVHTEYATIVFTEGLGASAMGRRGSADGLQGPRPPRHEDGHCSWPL
Description: 3E5 transiently transfected Expi293 cells were suspended in 100 ul MACS buffer and added to each well. 50 ul of each antibody dilution were then mixed with the cells and the plate was incubated at 4° C. for 30 min. Following incubation, the plate was washed 2× with MACS buffer and then incubated with lul/well anti human Fc-APC (Biolegend #409306). The plate was incubated for 25 min at 4° C. and then washed 3× before running the samples.

Chain of human PD-1 on cells (Q15116 25-288): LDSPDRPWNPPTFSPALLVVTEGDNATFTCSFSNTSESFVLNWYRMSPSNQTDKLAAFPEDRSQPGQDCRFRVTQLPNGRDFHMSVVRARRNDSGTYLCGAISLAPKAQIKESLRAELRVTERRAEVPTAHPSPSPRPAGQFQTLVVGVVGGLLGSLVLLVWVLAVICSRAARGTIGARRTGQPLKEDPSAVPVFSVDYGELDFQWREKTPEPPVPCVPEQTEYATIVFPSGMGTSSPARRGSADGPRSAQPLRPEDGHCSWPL

B1: P4-B3 minibody (scFv-Fc) (Fc fusion)
scFv: QVQLVQSGGGLVQPGRSLRLSCAASGFTFDDYAMHWVRQAPGKGLEWVSGISWNSGSIGYADSVKGRFTVSRDNAKNSLYLQMNSLRAEDTAVYYCASDYGDKYYYYGMDVWGKGTTVTVSSGGGGSGGGGSGGGGSQPGLTQPPSASGTPGQRVTISCSGSSSNIGSNTVNWYQQFPGKAPKLLIFNDNQRPSGVPDRFSASKSGTSASLAISGLQSEDEADYYCAAWDGGLNGRGVFGGGTKLTVL
notes: scFv-Fc (minibody) format; also called P4-B3 WT; P4-B3 wild type; not shown: Fc (hinge-CH2-CH3) of the minibody vector and its junction to the scFv
In the case of B1, the “EC50, Promega PD1-PDL1 bioassay (scFv-Fc format)” value (human PD-1 on cells) is reported as 1.75 fold of the EC50 of Nivo and the Kd [1] is reported as ~1 nM.

B2: P4-B3 scFv (scFv)
scFv: B1 scFv
notes: This is a single chain Fv; VH and VL are joined by a G4S linker of which only the DNA is printed
B2 was tested, and the koff [2] was 6.45e-05 s⁻¹ and the kon [2] was 68500 M⁻¹ s⁻¹.

B3: P4-B3 IgG1 wild type monomer (antibody, V domains shown)
VH: QVQLVQSGGGLVQPGRSLRLSCAASGFTFDDYAMHWVRQAPGKGLEWVSGISWNSGSIGYADSVKGRFTVSRDNAKNSLYLQMNSLRAEDTAVYYCASDYGDKYYYYGMDVWGKGTTVTVSS
VL: QPGLTQPPSASGTPGQRVTISCSGSSSNIGSNTVNWYQQFPGKAPKLLIFNDNQRPSGVPDRFSASKSGTSASLAISGLQSEDEADYYCAAWDGGLNGRGVFGGGTKLTVLG
B3 was tested, and the “fold induction (RLU stimulated/RLU unstimulated), Promega PD1-PDL1 bioassay” value (human PD-1 on cells) was ~0.5 fold of the signal of pembro and nivo.

B4: P4-B3 (format not stated) (antibody, V domains shown)
VH: B3 VH
VL: QPGLTQPPSASGTPGQRVTISCSGSSSNIGSNTVNWYQQFPGKAPKLLIFNDNQRPSGVPDRFSASKSGTSASLAISGLQSEDEADYYCAAWDGGLNGRGVFGGGTKLTVL
notes: It was detected with anti human Fc-APC
B4: binds [3].
